Our source for the Kd values is patent US20260265385A1 (ANAPTYSBIO, published 2026).

The target in experiment [1] is T1, recombinant cynomolgus IL-2Rβ (extracellular domain, Ala1-Thr215) (cynomolgus, UniProt Q38J85 27-240).
T1 construct: extracellular domain; Analyte in SPR; also called cynomolgus LL-2Rβ; Cyno IL-2RB
T1 sequence (looked up): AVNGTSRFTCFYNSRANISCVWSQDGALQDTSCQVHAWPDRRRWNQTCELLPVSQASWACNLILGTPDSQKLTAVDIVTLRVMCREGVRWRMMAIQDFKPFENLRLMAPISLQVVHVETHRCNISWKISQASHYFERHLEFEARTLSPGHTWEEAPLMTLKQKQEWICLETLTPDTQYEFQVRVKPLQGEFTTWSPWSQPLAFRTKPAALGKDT
Description: SPR, antibody captured on Protein A chip. Summed up: (§1)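 Antibodies captured on a Protein A chip (0.5 μg/mL, 60 s), then exposed to IL-2Rβ extracellular domain (Ala1-Thr215) at about 0.4–11 nM; 300 s association, 1200 s dissociation. On- and off-rates and KD from a global 1:1 binding fit.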
For orientation: Surface plasmon resonance follows binding to a sensor surface in real time, without labels.

The target of experiment [2] is T2, recombinant human IL-2Rβ (extracellular domain, Ala1-Thr215) (human, UniProt P14784 27-240).
T2 construct: extracellular domain; Analyte in SPR; Ala1-Thr215 is counted on the mature protein; also called human LL-2Rβ; Human IL-2RB
T2 sequence (looked up): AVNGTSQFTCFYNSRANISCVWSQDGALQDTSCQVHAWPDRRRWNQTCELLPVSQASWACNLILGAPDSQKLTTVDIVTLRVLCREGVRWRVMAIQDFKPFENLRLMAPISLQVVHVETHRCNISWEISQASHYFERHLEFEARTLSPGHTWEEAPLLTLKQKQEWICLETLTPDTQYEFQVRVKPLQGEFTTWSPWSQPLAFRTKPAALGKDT
Description: SPR, antibody captured on Protein A chip. Summed up: as §1

B1: APE15145 (antibody, V domains shown)
VH: EVQLVQSGAEVKKPGATVKISCKVSGFNFKLSLMHWVQQAPGKGLEWMGWIDNEAGETEYAPGFQDRVTITADTSTDTAYMELSSLRSEDTAVYYCARGGPWFLSYWGQGTTVTVSS
VL: EIVMTQSPATLSVSPGERATLSCRASQIISNNLHWYQQKPGQAPRLLIIYGLQSISGIPARFSGSRSGTEFTLTISSLQSEDFAVYYCQQSNNWPWTFGQGTKLEIKR
notes: M10-1275 series
The Kd is the equilibrium constant for the complex coming apart. As for B1, the dissociation constant (Kd) in experiment [1] worked out at 0.0108 nM; in experiment [2], 0.0296 nM.

B2: APE15276 (antibody, V domains shown)
VH: EVQLVQSGAEVKKPGATVKISCKVSGFNFKESLIHWVQQAPGKGLEWMGWIDNEAGETEYAPGFQDRVTITADTSTDTAYMELSSLRSEDTAVYYCARSGPWFLSYWGQGTTVTVSS
VL: EIVMTQSPATLSVSPGERATLSCRASQIISNNLHWYQQKPGQAPRLLIIYGLQSISGIPARFSGSRSGTEFTLTISSLQSEDFAVYFCQQSNNFPWTFGQGTKLEIKR
notes: M10-1275 series
On to B2, for which the equilibrium dissociation constant (Kd) in experiment [1] was found to be 0.00599 nM; in experiment [2], 0.0178 nM.

B3: APE15171 (antibody, V domains shown)
VH: EVQLVQSGAEVKKPGATVKISCKVSGFNFKYSLIHWVQQAPGKGLEWMGWIDNEAGETEYAPGFQDRVTITADTSTDTAYMELSSLRSEDTAVYYCARGGPWFLSYWGQGTTVTVSS
VL: EIVMTQSPATLSVSPGERATLSCRASQIISNNLHWYQQKPGQAPRLLIIYGLQSISGIPARFSGSRSGTEFTLTISSLQSEDFAVYFCQQSNNFPYTFGQGTKLEIKR
notes: M10-1275 series
Turning to B3, the Kd in experiment [1] is 0.0522 nM; in experiment [2] it was 0.276 nM.

B4: APE15172 (antibody, V domains shown)
VH: EVQLVQSGAEVKKPGATVKISCKVSGFNFKYSLIHWVQQAPGKGLEWMGWIDNEAGETEYAPGFQDRVTITADTSTDTAYMELSSLRSEDTAVYYCARGGPWFLSYWGQGTTVTVSS
VL: EIVMTQSPATLSVSPGERATLSCRASQIISNNLHWYQQKPGQAPRLLIIYGLQSISGIPARFSGSRSGTEFTLTISSLQSEDFAVYFCQQSNNWPYTFGQGTKLEIKR
notes: M10-1275 series
Turning to B4, the values for the Kd in experiment [1] and in experiment [2] were 0.0271 nM and 0.116 nM, respectively.

B5: APE15168 (antibody, V domains shown)
VH: EVQLVQSGAEVKKPGATVKISCKVSGFNFKESLIHWVQQAPGKGLEWMGWIDNEAGETEYAPGFQDRVTITADTSTDTAYMELSSLRSEDTAVYYCARGGPWFLSYWGQGTTVTVSS
VL: EIVMTQSPATLSVSPGERATLSCRASQIISNNLHWYQQKPGQAPRLLIIYGLQSISGIPARFSGSRSGTEFTLTISSLQSEDFAVYFCQQSNNFPYTFGQGTKLEIKR
notes: M10-1275 series
For B5, the Kd in experiment [1] was found to be 0.0379 nM; in experiment [2], 0.324 nM.

B6: APE15173 (antibody, V domains shown)
VH: EVQLVQSGAEVKKPGATVKISCKVSGFNFKYSLIHWVQQAPGKGLEWMGWIDNEAGETEYAPGFQDRVTITADTSTDTAYMELSSLRSEDTAVYYCARGGPWFLSYWGQGTTVTVSS
VL: EIVMTQSPATLSVSPGERATLSCRASQIISNNLHWYQQKPGQAPRLLIIYGLQSISGIPARFSGSRSGTEFTLTISSLQSEDFAVYFCQQSNNFPWTFGQGTKLEIKR
notes: M10-1275 series
With B6, the values for the Kd in experiment [1] and in experiment [2] were 0.00509 nM and 0.0184 nM, respectively.

B7: APE15167 (antibody, V domains shown)
VH: EVQLVQSGAEVKKPGATVKISCKVSGFNFKESLMHWVQQAPGKGLEWMGWIDVEAGETEYAPGFQDRVTITADTSTDTAYMELSSLRSEDTAVYYCARGGPWFLSYWGQGTTVTVSS
VL: EIVMTQSPATLSVSPGERATLSCRASQIISNNLHWYQQKPGQAPRLLIIYGLQSISGIPARFSGSRSGTEFTLTISSLQSEDFAVYYCQQSNNWPWTFGQGTKLEIKR
notes: M10-1275 series
As to B7, the values for the Kd in experiment [1] and in experiment [2] were 0.00655 nM and 0.045 nM, respectively.

B8: APE15446 (antibody)
heavy: not shown
light: EIVMTQSPATLSVSPGERATLSCRASQIISNNLHWYQQKPGQAPRLLIIYGLQSISGIPARFSGSRSGTEFTLTISSLQSEDFAVYFCQQSNNFPWTFGQGTKLEIKRTVAAPSVFIFPPSDEQLKSGTASVVCLLNNFYPREAKVQWKVDNALQSGNSQESVTEQDSKDSTYSLSSTLTLSKADYEKHKVYACEVTHQGLSSPVTKSFNRGEC
notes: M10-1275 series
For the molecule B8, the results for the Kd in experiment [1] and in experiment [2] were 0.00415 nM and 0.0107 nM, respectively.

B9: APE15428 (antibody)
heavy: not shown
light: DIQMTQSPSSLSASVGDRVTITCKASQNVGTDVAWYQQKPGKAPKSLIYSASYRYSGVPSRFSGSGSGTDFTLTISSLQPEDFATYFCHQYESYPFTFGQGTKLEIKRTVAAPSVFIFPPSDEQLKSGTASVVCLLNNFYPREAKVQWKVDNALQSGNSQESVTEQDSKDSTYSLSSTLTLSKADYEKHKVYACEVTHQGLSSPVTKSFNRGEC
notes: M6-p1625 series
In the case of B9, the Kd was determined as 0.0765 nM in experiment [1] and 0.0567 nM in experiment [2].
